Laboratory results: a protein production outcome set (Wang et al. 2014)

Test: label from the status in PepcDB records

Row | Sequence | protein production
1 | MRQFPPASSTVISVNFEELQAFVGRNPMLSLALVGLTIAIIVTEIARLFRGYRALKPAELTRLINSENALVIDLSPTADFEKGHIAGSRNVALAKFDPAGKLLANAKSSPVVVVCRSGNASAGAAKTLKKAGFEQVYWLEGGIAAWQMAELPLVKGRA | failed
2 | MSRQFIIQLFLALLLCCLTITFSSIAKSAETTSTDDATDLVVAQKIIKNQQQTEKSSSASAVAVQQPQIANDMADGQSIRNLPSLNEPVIDQANLLSSEQRQALSDQIRQLYQTGKAQMAVVIVPTTGQEDIFDYAMRVGEKWQLGSAKRDNGILMAIAVNDRRIQILTGYGLEGVLPDIVVGRIIRDQITPYFKQAQYAQGIQSGVNEIEKIVNMDPEIAQQAAQDLKQRQEQALHEQQARSQMMVYSLIIVVVGIFASYIVGNRLSAATAGVAGIAAGVISGVGLITSLLIGLGIFLLLITSLAQLILQIFASGGGRGGGGGFGGGGGGGYSGGGGSFGGGGASGSW | failed
3 | MIKLNRDQKLTYKFLIIPIALLILSFNPYTESLEFSLPAVYMASHYAVYFSGLYIGYKYFKGGYISLILGLIPAVLWHSPYFFSLGAAMLDYRILLEITLLFGGVLLGSSINSMRLQIKITLLALWMLGDSILAILFITSTPLYSNLAYPFSPYTPSSLPLAGILMFVIMNVFLIYVISKFMKSIIG | failed
4 | MQTKVINFNDKFSLFNQHWSPRVIAEMNDYQFKLVKVEGEFVWHEHADTDEVFIVMEGTLQIAFRDQNITLQAGEMYVIPKGVEHKPMAKEECKIMIIEPR | not failed
5 | MAGIKVFGHPASTSTRRVLIALHEKNLDFELVHVELKDGEHKKEPFLSRNPFGQVPAFEDGDLKLFESRAITQYIAHRYENQGTNLLPADSKNIAQYAIMSIGIQVEAHQFDPVASKLAWEQVFKFNYGLNTDQAVVAEEEAKLAKVLDVYEARLKEFKYLAGETFTLTDLHHIPVIQYLLGTPTKKLFTERPRVNEWVAEITKRPASEKVL | failed
6 | WWNWKGHEVHLDCFRNEKAPVKVILLHGVGTNGRQMSMILGGPLSKDGFETIAIDMPTYGVTKVKKGSVVKYDDWVDLACDYIDYEQQRDDRPIVLYGLSAGGMETYHVAAKNKKVKGIIGMTFLDQKNQQVRDETAKNLVMSRVGIPMAGIACNIGLENFKMKMSTASKMSALCNNEKVMEIFNRDKTSAANKASMRFLDSYGNYQPAMEPEDFDVCPILLTQPEQDKWTPLHLSTPFLNKIKKVDVKIVMLENGGHYPVEQPALDQMHDAIVEFIYKVTK | failed
7 | MNNIILMPILIPFLGAITLMLLPKRVIVQRVFALIFSGILVVATIGLVFYIRENGITTVNIGNWAAPFGITMVGDMLAVLLTATTSIVLFCVILYSFYTIGKPREKFLYYPAILFMIVGVNGSFLTGDIFNMFVFFEVMLMASYVLLVIGGTQVQLKATIKYLLINVVGSGFFVVAIALLYSMIGTLNMADISQKITDLNGANTGMISIVAVLFLFVFGLKAGLFPLYFWLPGSYFAPPIPVLALFGGLLTKVGVYAIIRTYTLFFSSLTDFVVPLLGILAIVTIILGVIGAISYYDMKTIVIYNIMIAIGVILFSVSIMTRESMTGAVFYLIHDMIIKAALFLIVGIVMAITGYSSVKKFSGLMSVKPSLGWIFFIATLGLAGIPPLSGFIGKLLIVEGAFSAGQMVGGIIILLSSLFVLMSLIKVFTKGFWGEKKGVFNLQIPYKKMLVPVVILLAISIGYGVFSNAIYPFIEQAVDPLVDPSVYIHAVIKE | failed
8 | MKISFSEIIHNALKEDLGDKGDITTNSILINEKVNFAINTRENLVVCGIPILEEVFNMNKEHVKYEIHKKDGDITGKNSTLVSGEALAIYLLPIERVILNFIQHASGIASITRQFVDEVSGTKVKIRSTRKTTPGLRMLDKYSVCIGGGESYRDNLCDGVLIKDNHIASCGSITLAIQRLRKNLKNEYIAIECDNISQVEESLSNNVDMILLDNMSISEIKKAVDIVNGKSVLEVSGCVNIRNVRNIALTGVDYISIGCITNSFQNKDIGLDIEYNNNK | not failed
9 | GKVIVLDAGHGGPDGGAVGGKDIVEKDITLEITKKVQDYLQEQGALVILTREGDYDLAQKDTKSYSRRKAEDLKKRVEIINKPDVDFFASIHLNALTSSGSKGAQTFYYRSSIENERAAKFIQAELRTSLENTNRSAKTISHVYLLKYAKTPGALIEAGFLSNVNERYMLNSEKYQQKVAAAVYRGILRYFTEKGNPPE | failed
10 | AGGTTPAELRAAAADFTWLLNRFATETAGVVDAIAVSSDGLLIAVSELREHADSERLAAIVSGITSLAAGASGNYGLGGLNKVIIDLEGGHVLVSAIGSGAVLGVVTDKEAKLGNIAYEMTLFANRAGAALS | failed
